# From US20150344570A1 (published 2015)
# T1: FcγRIIb (human, UniProt P31994 43-217)
# T1 construct: extracellular domain; Soluble extracellular domain with C-terminal His tag, used as analyte; also called FcgRIIb; CD32B; not shown: His tag at the C terminus
# T1 sequence (looked up): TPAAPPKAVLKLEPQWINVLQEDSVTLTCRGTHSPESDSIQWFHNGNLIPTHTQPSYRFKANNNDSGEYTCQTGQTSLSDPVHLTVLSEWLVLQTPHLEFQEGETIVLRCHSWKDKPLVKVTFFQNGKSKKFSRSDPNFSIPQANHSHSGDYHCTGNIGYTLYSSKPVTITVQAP
# B1: GpH7-A5/GpH7-B3 variant I336_19Q/GpL16-k0 (antibody, human IgG1, kappa)
# heavy 1: not shown
# heavy 2: not shown
# light: DIVMTQSPLSLPVTPGEPASISCQASESLVHSNRNTYLHWYLQKPGQSPQLLIYKVSNRFSGVPDRFSGSGSGTDFTLKISRVEAEDVGVYYCSQNTHVPPTFGQGTKVEIERTVAAPSVFIFPPSDEQLKSGTASVVCLLNNFYPREAKVQWKVDNALQSGNSQESVTEQDSKDSTYSLSSTLTLSKADYEKHKVYACEVTHQGLSSPVTKSFNRGEC
# notes: He Ab: mutation in one H chain only; also called He Ab
# B2: GpH7-A5/GpH7-B3 variant S324_02A/GpL16-k0 (antibody, human IgG1, kappa)
# heavy 1: not shown
# heavy 2: not shown
# light: B1 light
# notes: as for B1
# B3: GpH7-A5/GpH7-B3 variant N325_16H/GpL16-k0 (antibody, human IgG1, kappa)
# heavy 1: not shown
# heavy 2: not shown
# light: B1 light
# notes: as for B1
# B4: GpH7-A5/GpH7-B3 variant Y300_07I/GpL16-k0 (antibody, human IgG1, kappa)
# heavy 1: not shown
# heavy 2: not shown
# light: B1 light
# notes: as for B1
# B5: GpH7-A5/GpH7-B3 variant S324_18N/GpL16-k0 (antibody, human IgG1, kappa)
# heavy 1: not shown
# heavy 2: not shown
# light: B1 light
# notes: as for B1
# B6: GpH7-A5/GpH7-B3 variant Y300_11K/GpL16-k0 (antibody, human IgG1, kappa)
# heavy 1: not shown
# heavy 2: not shown
# light: B1 light
# notes: as for B1
# B7: GpH7-A5/GpH7-B3 variant S324_16H/GpL16-k0 (antibody, human IgG1, kappa)
# heavy 1: not shown
# heavy 2: not shown
# light: B1 light
# notes: as for B1
# B8: GpH7-A5/GpH7-B3 variant S337_03V/GpL16-k0 (antibody, human IgG1, kappa)
# heavy 1: not shown
# heavy 2: not shown
# light: B1 light
# notes: as for B1
# B9: GpH7-A5/GpH7-B3 variant S298_11K/GpL16-k0 (antibody, human IgG1, kappa)
# heavy 1: not shown
# heavy 2: not shown
# light: B1 light
# notes: as for B1
# B10: GpH7-A5/GpH7-B3 variant Y300_09D/GpL16-k0 (antibody, human IgG1, kappa)
# heavy 1: not shown
# heavy 2: not shown
# light: B1 light
# notes: as for B1
# B11: GpH7-A5/GpH7-B3 variant Y300_02A/GpL16-k0 (antibody, human IgG1, kappa)
# heavy 1: not shown
# heavy 2: not shown
# light: B1 light
# notes: as for B1
# B12: GpH7-A5/GpH7-B3 variant S298_14T/GpL16-k0 (antibody, human IgG1, kappa)
# heavy 1: not shown
# heavy 2: not shown
# light: B1 light
# notes: as for B1
# B13: GpH7-A5/GpH7-B3 variant S324_19Q/GpL16-k0 (antibody, human IgG1, kappa)
# heavy 1: not shown
# heavy 2: not shown
# light: B1 light
# notes: as for B1
# B14: GpH7-A5/GpH7-B3 variant S298_19Q/GpL16-k0 (antibody, human IgG1, kappa)
# heavy 1: not shown
# heavy 2: not shown
# light: B1 light
# notes: as for B1
# B15: GpH7-A5/GpH7-B3 variant S324_14T/GpL16-k0 (antibody, human IgG1, kappa)
# heavy 1: not shown
# heavy 2: not shown
# light: B1 light
# notes: as for B1
# B16: GpH7-A5/GpH7-B3 variant S298_16H/GpL16-k0 (antibody, human IgG1, kappa)
# heavy 1: not shown
# heavy 2: not shown
# light: B1 light
# notes: as for B1
# B17: GpH7-A5/GpH7-B3 variant N325_11K/GpL16-k0 (antibody, human IgG1, kappa)
# heavy 1: not shown
# heavy 2: not shown
# light: B1 light
# notes: as for B1
# B18: GpH7-A5/GpH7-B3 variant S324_09D/GpL16-k0 (antibody, human IgG1, kappa)
# heavy 1: not shown
# heavy 2: not shown
# light: B1 light
# notes: as for B1
# B19: GpH7-A5/GpH7-B3 variant S324_12R/GpL16-k0 (antibody, human IgG1, kappa)
# heavy 1: not shown
# heavy 2: not shown
# light: B1 light
# notes: as for B1
# B20: GpH7-A5/GpH7-B3 variant S324_01G/GpL16-k0 (antibody, human IgG1, kappa)
# heavy 1: not shown
# heavy 2: not shown
# light: B1 light
# notes: as for B1
# B21: GpH7-A5/GpH7-B3 variant Y300_08L/GpL16-k0 (antibody, human IgG1, kappa)
# heavy 1: not shown
# heavy 2: not shown
# light: B1 light
# notes: as for B1
# B22: GpH7-A5/GpH7-B3 variant N325_02A/GpL16-k0 (antibody, human IgG1, kappa)
# heavy 1: not shown
# heavy 2: not shown
# light: B1 light
# notes: as for B1
# Target: T2, FcγRIa (human, UniProt P12314 16-292)
# T2 construct: extracellular domain; Soluble extracellular domain with C-terminal His tag, used as analyte; also called FcgRI; CD64; not shown: His tag at the C terminus
# T2 sequence (P12314 16-292): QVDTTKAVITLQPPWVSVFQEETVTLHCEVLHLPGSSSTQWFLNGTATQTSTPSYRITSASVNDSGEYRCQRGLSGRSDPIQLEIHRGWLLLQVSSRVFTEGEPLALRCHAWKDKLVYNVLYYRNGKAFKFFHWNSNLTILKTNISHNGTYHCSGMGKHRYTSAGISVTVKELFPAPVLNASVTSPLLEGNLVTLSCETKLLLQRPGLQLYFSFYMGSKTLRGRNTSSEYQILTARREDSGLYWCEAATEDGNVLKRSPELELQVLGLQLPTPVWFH
# Test: SPR (Biacore), captured antibody, FcγR as analyte, relative binding
# Method: (§1) The heterodimerized antibodies He Abs in which one of the H chains was introduced with an alteration were assayed for their binding activities to each activating FcγR and inhibitory FcγR according to the method described in Example 4. […] The activating FcγRs in FIGS. 26, 27, 28, and 29 are FcγRIa, FcγRIIa (R), FcγRIIa (H), and FcγRIIIa, respectively.
# (§2) Analysis of interaction between objective antibody and the FcγR was carried out using Biacore T100 (GE Healthcare). HBS-EP+ (GE Healthcare) was used as the running buffer, and the measurement temperature was set to 25° C. Chips produced by immobilizing the antigen peptide by the amine coupling method to a Series S Sencor Chip CM5 (GE Healthcare), or alternatively, chips produced by allowing preliminarily biotinylated antigen peptides to interact with and immobilize onto a Series S Sensor Chip SA (certified) (GE Healthcare) were used. Antibodies of interest were captured onto an antigen peptide-immobilized chip, and allowed to interact to each FcγR diluted with running buffer. To regenerate and repeatedly use the chip, the antibodies captured on the chip were washed off by reacting 10 mM glycine-HCl, pH 1.5.
row,He/Con_1a,Binder
1,104 % of GpH7-A5/GpH7-B3/GpL16-k0,B1
2,103 % of GpH7-A5/GpH7-B3/GpL16-k0,B2
3,95.1 % of GpH7-A5/GpH7-B3/GpL16-k0,B3
4,108 % of GpH7-A5/GpH7-B3/GpL16-k0,B4
5,116 % of GpH7-A5/GpH7-B3/GpL16-k0,B5
6,107 % of GpH7-A5/GpH7-B3/GpL16-k0,B6
7,113 % of GpH7-A5/GpH7-B3/GpL16-k0,B7
8,107 % of GpH7-A5/GpH7-B3/GpL16-k0,B8
9,109 % of GpH7-A5/GpH7-B3/GpL16-k0,B9
10,112 % of GpH7-A5/GpH7-B3/GpL16-k0,B10
11,112 % of GpH7-A5/GpH7-B3/GpL16-k0,B11
12,107 % of GpH7-A5/GpH7-B3/GpL16-k0,B12
13,112 % of GpH7-A5/GpH7-B3/GpL16-k0,B13
14,109 % of GpH7-A5/GpH7-B3/GpL16-k0,B14
15,121 % of GpH7-A5/GpH7-B3/GpL16-k0,B15
16,109 % of GpH7-A5/GpH7-B3/GpL16-k0,B16
17,80.9 % of GpH7-A5/GpH7-B3/GpL16-k0,B17
18,104 % of GpH7-A5/GpH7-B3/GpL16-k0,B18
19,102 % of GpH7-A5/GpH7-B3/GpL16-k0,B19
20,98.8 % of GpH7-A5/GpH7-B3/GpL16-k0,B20
21,113 % of GpH7-A5/GpH7-B3/GpL16-k0,B21
22,96.8 % of GpH7-A5/GpH7-B3/GpL16-k0,B22

# Target: T1, FcγRIIb
# Test: as above
# Method: as §1, §2
row,He/Con_2b,Binder
1,58.2 % of GpH7-A5/GpH7-B3/GpL16-k0,B1
2,78.3 % of GpH7-A5/GpH7-B3/GpL16-k0,B2
3,70.1 % of GpH7-A5/GpH7-B3/GpL16-k0,B3
4,74.5 % of GpH7-A5/GpH7-B3/GpL16-k0,B4
5,81.1 % of GpH7-A5/GpH7-B3/GpL16-k0,B5
6,51.6 % of GpH7-A5/GpH7-B3/GpL16-k0,B6
7,83.5 % of GpH7-A5/GpH7-B3/GpL16-k0,B7
8,98.9 % of GpH7-A5/GpH7-B3/GpL16-k0,B8
9,61.3 % of GpH7-A5/GpH7-B3/GpL16-k0,B9
10,93.2 % of GpH7-A5/GpH7-B3/GpL16-k0,B10
11,69.2 % of GpH7-A5/GpH7-B3/GpL16-k0,B11
12,77.9 % of GpH7-A5/GpH7-B3/GpL16-k0,B12
13,66.8 % of GpH7-A5/GpH7-B3/GpL16-k0,B13
14,73.3 % of GpH7-A5/GpH7-B3/GpL16-k0,B14
15,88.4 % of GpH7-A5/GpH7-B3/GpL16-k0,B15
16,63.5 % of GpH7-A5/GpH7-B3/GpL16-k0,B16
17,10.4 % of GpH7-A5/GpH7-B3/GpL16-k0,B17
18,85.8 % of GpH7-A5/GpH7-B3/GpL16-k0,B18
19,63.1 % of GpH7-A5/GpH7-B3/GpL16-k0,B19
20,81.1 % of GpH7-A5/GpH7-B3/GpL16-k0,B20
21,73.6 % of GpH7-A5/GpH7-B3/GpL16-k0,B21
22,64.4 % of GpH7-A5/GpH7-B3/GpL16-k0,B22
